assay: yeast display, Sf9 membrane polyspecificity reagent, FACS + sequencing; frameworks hold sequencing errors
How it was run: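 Nanobodies came from a synthetic yeast display library in Saccharomyces cerevisiae BJ5465, induced with galactose for 36–48 hours and stained for 1 hour at 4 °C with 10% biotinylated, detergent-solubilized Sf9 membrane reagent. Cells were enriched on streptavidin microbeads and then FACS-sorted, with low and high (top ~1%) gates set on anti-HA fluorescence for expression and streptavidin fluorescence for reagent binding. Each polyreactivity label reflects the gate a clone came from. Genes were amplified by colony PCR, sequenced by MiSeq 2 × 250 and filtered by CDR length.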

| Sequence | polyreactivity (PSR sort gate) |
| --- | --- |
| QVQLVESGVRVVQAGGSLRLRCAASGFTFRDYTMGWYRQAPGKERELVAAISRSGGSTYYADSVKGRFTISRDNAKNTVDLQMNSLKPEDTAVYYCAALWHAVSYADYDYWGQGTQVTVSS | high polyreactivity |
| QVQLVESRAGLVQAGGSLRLSCAASGRTSWVYAMGWYRHAPGKDRELVAAIRWRGSSTYYADSGKGRFTISRDNAKNTVYLQMNSLKPEVTAVYYCAAAFSFAQSFDSWGQGTQVTVSS | high polyreactivity |
| QVQLVESRGGLLQAGGSLRLSCAASGIIFGHYDMGWYRQAPGKEWELVAAITFTGDSTYYADSVKGRFTISRDNAKHTVYLQMNSLKPEDTAVYYCAAETPVPWGSWGYDYWGQGTQVTVSS | low polyreactivity |
| QVQLVESRGGLLQAGGTLRLSCAASGLTITTYTMGWSIQAPGTERELVASINYRGGRTYYADSVKGRFSISRDNAKNTVYLQMNSLKPEDTAVYYCAKSRYYRRRQYYHYDYCGQGTQVTVSS | high polyreactivity |
| QVQLVESRGGLVQAGGSLGLSCAASGPTFFYNAMGWYRQAPGKERELVAAISSGGGSTYYADSVKGRFTISRDNAKNTVYLQMNSLKPEDTAVYYCAGASYRQPGYGYWGQGTLVTVSS | high polyreactivity |
| QVQLVESRGGLVQAGGSLRISCAASGSTFVAYAMGWYRQAPAKERELVAAISYSGGSTYYADSVKGRFTISRDYAKNTVSLQMNCLKPEDTAVYYCAAEWSRHYYYGPRYDYWGQGTQVSVSS | low polyreactivity |
| QVQLVESRGGLVQAGGSLRLSCAASGATFNHYAMGWYRQAPGKERELVAAITKSGGSTYADSVKGRFTISRDNAKKTVYLQMNSLKPEDTAVYYCAAGRRKYGTKGRGDYWGQGSQVTVSS | low polyreactivity |
| QVQLVESRGGLVQAGGSLRLSCAASGFIFDKYAMGWYRQAPGKERELVATITSGGSTYYADSVKGRFTISRDNAKNTVYLQMNSLKPEDTAVYYCAALDYGYRWYRYYYWGQGTQVTVSS | high polyreactivity |
| QVQLVESRGGLVQAGGSLRLSCAASGFIFSSYAMGWYRQAHGKERELVAAITSGGSTNYADSVKGRFTISRDNAKNTVYLQMNSLKPEDTAVYYCATVPGGSWFFHWWSTGGDDEYWGQGTQVTVSS | low polyreactivity |
| QVQLVESRGGLVQAGGSLRLSCAASGFIFWYYAMGWYRQAPGKERALVAAINWSGTSTNYADSVKGRFTISRDNAKNTVYLQMNSLIPEDTAVYYCNTRIWSSSYDVTYDYWGQGTQVTVSS | low polyreactivity |
| QVQLVESRGGLVQAGGSLRLSCAASGFTFYLNALGWYRPAPGKERELVAAISYSDGSTYYADSVKGRFTISRDNAKNTVYLQMNSLKPEDTAVYYCAADTTDPGGAYQLMDYCGQGTQVTVSS | high polyreactivity |
| QVQLVESRGGLVQAGGSLRLSCAASGIIFDTNAMGWYRQAPGKERELVATITQRGGTTYYADSVKGRFTISRDNAKNTVYLQMNSLKPEDTAVYYCNAGPVRLPYDSWGQGTQVTVSS | low polyreactivity |
| QVQLVESRGGLVQAGGSLRLSCAASGITLYGYAMGWYRQAPGKERELVAAISRSGSSTYYADSVKGRFTISRDNAKNTVYVQMNSLKPEDTAVYYCNSEKYYLAYLLPFNYWGQGTQVTVSS | high polyreactivity |
| QVQLVESRGGLVQAGGSLRLSCAASGLTFRYYAMGWYRQAPGKERELVAAITASVGSTYYADSVKGRFTISRDNAKNTVYLQMNSLKPEDTAVYYCAADSEQDNLRYYRWVWYYYWGQGTQVTVSS | low polyreactivity |
| QVQLVESRGGLVQAGGSLRLSCAASGMTFSDYPMGLYRQAPGKEREFVSAITSGGRTNYADSVKGRFTISRDNAKNTVYLQMNSLKPEDTAVYYCAAVYTYVYYYHYPYYYWGQGTQVTVSS | low polyreactivity |
| QVQLVESRGGLVQAGGSLRLSCAASGRIFGSYAMGWYRQAPGKERVLVAAISYSGGSTYYADSVKGRFTISRDNAKNTVYLQMNSLKPEDTAVYYSNVDRYYGYFSVRGGYWGQGTQVTVSS | low polyreactivity |
| QVQLVESRGGLVQAGGSLRLSCAASGRIFGYYAMGWYRQAPGKERELVATIRGGGSTNYADSVKGRFTISRDNAKNTVYLQMNSLKPEDTAVYYCAKPGAKWRGFDYWGQGTQVTVSS | low polyreactivity |
| QVQLVESRGGLVQAGGSLRLSCAASGRIFSNNAMGCYRQAPGKERELVAAITASSGSTYYADSVKGRFTISRDNAKNTVYLQMNSLKPEDTAVYYCAATLRWGFRWYFGFDYWGQGTQLTVSS | high polyreactivity |
| QVQLVESRGGLVQAGGSLRLSCAASGRILPYHVMGWYSQAPGKERELVAAISSGGTTDYADSVKGRFTISRDNANNTVYLQMNSLKPEDTAVYYCAATYDYWTWGYDYWGQGTQVTVSS | low polyreactivity |
| QVQLVESRGGLVQAGGSLRLSCAASGRTFHRNAMGWYRQPPGKERELVAAITGDGRTNYADSVKGRFTISRDNAKNTVYLQMNSLKPVDTAVYYCAARFSYRSYDYWGQGTQVTVSS | low polyreactivity |
| QVQLVESRGGLVQAGGSLRLSCAASGRTFSGNAMGWYRQAPGKERELVAAITSVGTTNYADSVKGRFTISRDNANNTVYLQMNSLKPEHTAVYYCAADPPSDYYKYDYWGHGTQVTVSS | low polyreactivity |
| QVQLVESRGGLVQAGGSLRLSCAASGRTIYPYTMGCYRQAPGKERELVAAISSSGTRTYYADSVKGRFTISRDIAKNTVYLQMNSLKPEDTAVYDCATRRPGSFGYWGQGTQVTVSS | high polyreactivity |

| Sequence | polyreactivity (PSR sort gate) |
| --- | --- |
| QVQLVESRGGLVQAGGSLRLSCAASGSIFDGYAMGWYRQAPGKERELVAAITWSGGRTYYADSVKGRFTISRDNAKNTVYLQMNSLKPEDTAVYYCNAVTGSWRYDYWGQGTQVTVSS | high polyreactivity |
| QVQLVESRGGLVQAGGSLRLSCAASGSIFLYAMGWYRQEPGKQRELVAAISGGGRTNYADSVKGRFTISRDNAKNTVYLQMNSMKPEDTAVYYCAADPVYWYSPMDYWGQGTQVTVSS | low polyreactivity |
| QVQLVESRGGLVQAGGSLRLSCAASGSIFPYYAMGWYRQAPGKERELVAAISLSGVSTTYADSVKGRFTISRDNAKNTVYLQMNSLKPVDTAVYYCAAKSFWSRYVGGYYWGQGTQVTVSS | high polyreactivity |
| QVQLVESRGGLVQAGGSLRLSCAASGSIFRSYAMGWYRQAPGKERELVAAIRGSDGNTYYADSVKGRFTISRDNPKNTVYLQMNSLKPEDTAVYYCAADGCLVDDSATRLYYWGQGTQVTVSS | high polyreactivity |
| QVQLVESRGGLVQAGGSLRLSCAASGSIFSFYAMGWYRQAPGKERELVATITSGGSTYYADSVKGRFSISRDNAKNTVYLQMNSLKPEDTAVYYCAARGNFGANPGRKHGFDYWGQGTQVTVSS | high polyreactivity |
| QVQLVESRGGLVQAGGSLRLSCAASGSIFYRYARGWYRQAPGKERELVAAITYSGGRTYYADSVKGRFTISRDNAKNTVYLQMNSLKPEDTAVYYCAAEKQSYGSPQGYDYWGQGTQVTVSS | low polyreactivity |
| QVQLVESRGGLVQAGGSLRLSCAASGSTFFYNAMGWYRQAPGKEREFVAAITNGVITNYADSVKGRFTISRDNAKNTVYLQMNSLKPEDTAVYYCAALRWSPRSRYQYNYWGQGTQVTVSS | high polyreactivity |
| QVQLVESRGGLVQAGGSLRLSCAASGSTFGPYTMGWYRQAPGKERELDAAISWNGGRTSYADSVKGRFTLSRDNAKNTVYLQKNSLKPEDTAGYYCAAGYFVGIYKRFYWGQGTQVTVSS | high polyreactivity |
| QVQLVESRGGLVQAGGSLRLSCAASGSTFPGYAMGCYRQAPGKERELVAAISRSGGSTSYADSVKGRFTISRDKAQNTVYLQLHSLKPEDTEVYYCAAQVQGTSRAKQRGGIGELDYWGQGTQVTVSS | low polyreactivity |
| QVQLVESRGGLVQAGGSLRLSCAASGSTFSPYVMGWYREAPGKERELFAAIRGRGGNTYYADSVKGRFTISRDNAKNTVYLQMNSLKPEDSAVYYCAAQSFAQYGWRYGDWGQVTQVTVSS | high polyreactivity |
| QVQLVESRGGLVQAGGSLRLSCAASGYIFGDYAKGWYRQAPGKERELVAAITQTGGNTYYADSVKGRFTISRDNAKKTVYLQMNSLKPEDTAVYYCAAPALGNYFYGYDYWGQGTQVTVSS | low polyreactivity |
| QVQLVESRGGLVQAGGSLRLSCAASGYTFQRYAMGCYRQAPGKEREMVAAISWSSGTTYYADSVKGRFTISRDNAKNTVYLQMNSLKPEDTAVYYCAAAGRQSGGRFYYWGQGTQVTVSS | high polyreactivity |
| QVQLVESRGGLVQAGGSLRLSCAASVGTFGLNAMGWYSQAPGKERELVADIDGRGGSTYYADSVKGRFTISRDNAKNTFDLQMNSLKPEDTAVYYSAARAPFLSVPSELDYWGQGTQVTVSS | low polyreactivity |
| QVQLVESRGGLVQAGGSLRLSCDASGSTIFENVMGWYRQAPGKEREFVAAINTSGGSTYYADSVKGRFTISRDNAKNTVYLQMNSLKPEDTAVYYCARDSYWEMDYWGQGTQVTVSS | low polyreactivity |
| QVQLVESRGGLVQAGGSLRLSCPASGSTFVSNAMGWYRQAPGKERELVAAISKSGGSTYYADSVKGRFTISRDNAKNTVYLQMISLKPEDTAVYYCAKYNAKSFYGQYDYWGQGTQVTVSS | high polyreactivity |
| QVQLVESRGGLVQAGGSLRLSFAASGFTFGSYSMVWYRQAPGKERELVADITRRGDNTYYADSVKGRFTISRDNAKNTVYLQMNSLKPEDSAVYYCNAAKGGRYPDYDYWGQGTQVTVSS | high polyreactivity |
| QVQLVESRGGLVQAGGSLRLSFAASGSTFIKNAMGWYRQAPGKEWELVAAITSGGSRSYADSVKGRFTISRDNAKNTVYLQMNSLKPEDTAVYYCATDHDIGYNFYRYDYWGQGTQVTVSS | low polyreactivity |
| QVQLVESRGGLVQAGGSLRLSSASSGSIFDIYEMGRYRQAPGKERELLASITWSRGSTYYADSVKGRFTISRDNAKNSVYLQINCLKPEDTAVYYCGTDKLFGRTVRMDYWGQGTQVTVSS | low polyreactivity |
| QVQLVESRGGLVQAGGSLRLTCAASGYTFVYNGMGWYRQAPGKERELVAAFRRRTGTTYYADSVKGRFTISRDNAKNTVYLQMNSLKPEDSSVYYSAATGFWCYDWGQGSQVTVSS | high polyreactivity |
| QVQLVESRGGLVQAGGSLRVSCAASGRTFGVNAMGWYRQAPGKERELVAAISTSGGSTYYADSVKGRFTISRDNAKNTVYLQMNSLIPEDTAVYYCNTGRGRYVHGRDYDYWGQGTQVTVSS | low polyreactivity |
| QVQLVESRGGLVQARGSLRLSSAASGFIFNANAMGCYRPAPGKESELVAAIDDGDSTYADSVKGRFTISRDNAKNTVYLQMNSLKPEDTAVYYCAVDGGEFSSYGYWGEGTQVTVSS | low polyreactivity |

— the nanobody polyreactivity screen of Harvey et al. (2022)
